As a reminder, the Kd is the concentration at which binding is half-saturated.

Data set [1] has as its target T1, LbCas12a (Cas12a, NEB M0653T) (Lachnospiraceae bacterium, UniProt A0A5S8WF58 1-1228). Put plainly: activation kinetics.
Data set [2] addresses T1, LbCas12a (Cas12a, NEB M0653T). Put plainly: activation kinetics. This is another data set of the same source.

Where two headings read alike, the source gives them in different places.

B1: crRNA-A19 + A19 ssDNA target (mixed)
RNA: UAAUUUCUACUAAGUGUAGAUGACAUUUUGCUCUCAAGCUG
DNA: ATTGAACCAGCTTGAGAGCAAAATGTCTGGTAAAGGCCAA
The molecule B1 came in with a Kd in data set [1] of 0.36 ± 0.26 nM.

B2: crRNA-A19 + A19 ssDNA-t target (mixed)
RNA: B1 RNA
DNA: AACCAGCTTGAGAGCAAAATGTCTGGTAAAGGCCAA
In turn, B2 returned a Kd in data set [1] of 0.3 ± 0.25 nM.

B3: crRNA-A2 + A2 ssDNA target (mixed)
RNA: UAAUUUCUACUAAGUGUAGAUCAUGCCAAUGCGCGACAUUC
DNA: TTCTTCGGAATGTCGCGCATTGGCATGGAAGTCACACCTT
With B3, the Kd in data set [2] stood at 1.1 ± 0.4 nM.

B4: crRNA-A2 + A2 ssDNA-t target (mixed)
RNA: B3 RNA
DNA: TCGGAATGTCGCGCATTGGCATGGAAGTCACACCTT
As for B4, in data set [2], the affinity, expressed as Kd, was 1.4 ± 0.7 nM.
